Data taken from US6833237B1, “Genes involved in stroke response and/or regulated by FK506, proteins encoded thereby, and methods of use” (Quark Biotech, Inc., priority 2000, dated 2004).

B1: SEQ ID No 94: library-derived antisense cDNA fragment of KIAA 0538, expressed from retroviral vector pLXSN (nucleic acid, listed as Homo sapiens)
antisense: TTAAAACTGCTTACCAGTGGCTGTCTGCGCTGCGGAAGGTGAGCATCAACAACACGGGACTGTTGGGCTCCTACCACCCTGGCGTCTTCCGTGGGGACAAGTGGAGCTGCTGCCACCAAAAAGAGAAGACAGGTCAGGGCTGCGATAAGACCCGGNCACGGGTGACCCTGCAGGAGTGGAATGACCCTNTTGACCGTGACCTTGAGGCCCANCTCATCTACCGGCACCTGCTGGGCGNGGAGGCCATGCTGTG
modifications: expressed from retroviral vector pLXSN; (156)..(238) n
notes: library-derived antisense cDNA fragment of KIAA 0538, expressed from retroviral vector pLXSN
B2: full length cDNA clone of KIAA 0538: full-length KIAA0538 cDNA under the control of Tet-repressible promoter, transfected into P19 cells (nucleic acid, listed as Homo sapiens)
DNA: TTAAAACTGCTTACCAGTGGCTGTCTGCGCTGCGGAAGGTGAGCATCAACAACACGGGACTGTTGGGCTCCTACCACCCTGGCGTCTTCCGTGGGGACAAGTGGAGCTGCTGCCACCAAAAAGAGAAGACAGGTCAGGGCTGCGATAAGACCCGGNCACGGGTGACCCTGCAGGAGTGGAATGACCCTNTTGACCGTGACCTTGAGGCCCANCTCATCTACCGGCACCTGCTGGGCGNGGAGGCCATGCTGTG
modifications: under Tet-repressible promoter; (156)..(238) n
notes: full-length KIAA0538 cDNA under the control of Tet-repressible promoter, transfected into P19 cells

What was measured:
BE2C cells = assay: Dopamine toxicity in BE2C cells, viability by Neutral red staining; format: cell-based, human; conditions: for cell survival at high Dopamine concentrations compared to control: BE2C cells, infection and transfection, Dopamine 24 hours, vs empty vector (FIG. 4 and 5); for protection of cells (Neutral red staining): 24 hours after exposure to high dopamine concentrations
From the text: The aim of the experiment was validation of the fragment of KIAA0538 found using Dopamine selection (SEQ. I.D. No 94) which has 253 nucleotides. A slightly smaller fragment was used , wherein the first 12 of the nucleotides of SEQ. I.D. No 94 were replaced with 5 different nucleotides. The location of this smaller fragment (having 246 nucleotides) within the KIAA0538 cDNA is from nucleotide 2020 to nucleotide 2265. For purpose of validation, cells were studied either after decrease of the gene expression by means of transfection or transduction with an antisense expressing vector (the fragment rescued from the library during the functional screening), or after increased gene expression using transfection with a full length expression vector. For experiment, BE2C cells were seeded into 6-well plates at density 100,000 cells/well. Retroviral vector expressing KIAA0538 antisense fragment (rescued in functional selection) fragment or empty vector (pLXSN) were introduced in neuroblastoma cells by two different methods—transfection using Fugen6 reagent (Rosh) or by retroviral infection. Population of transfected/transduced cells was enriched by 3 days G418 selection. BE2C cells were further treated with different concentrations of Dopamine for 24 hours and assayed for viability by Neutral red staining (FIG. 4—infection; FIG. 5—transfection).

P19 cells = assay: Colony formation assay in P19 cells, normoxic or ischemic conditions; format: cell-based, mouse; conditions: vs empty vector (FIG. 6)
Procedure: FIG. 6B is a graphical representation of FIG. 6A.
The effect of the full length KIAA0538 cDNA on cell survival was tested in colony formation assay in non-differentiated P19 cells stably expressing Tet-activator (confers high level of expression from responsive promoters). P19 cells were transfected with eithet empty vector or the same vector containing the full-length KIAA0538 cDNA under the control of Tet-repressible promoter. The number of transfected cells further taken for colony formation assay was normalized by cotransfection with GFP, so that the equal number of GFP-positive cells was taken for the assay. The cells were further plated and grown in the absence of tetracycline (to ensure the gene's expression) and in the presence of hygromycin (selectable marker) for 48 hours. Then part of the plates were subjected to 16 hours ischemia (0.5% O2 and no glucose) and following the transfer into normoxic conditions were further grown until the accomplishing of hygromycin selection (death of mock-transfected cells). The cell colonies grown in plates were fixed, stained with methylene blue and photographed with a CCD camera (FIG. 6). The area of the colonies was quantified using the IMAGE-Pro program.

Molecule	cell survival at high Dopamine concentrations compared to control (BE2C cells; listed as KIAA0538 antisense fragment)	cell survival at high Dopamine concentrations compared to control (BE2C cells; listed as antisense KIAA0538 fragment)	cell survival at high Dopamine concentrations compared to control (BE2C cells; listed as antisense fragment of KIAA0538)	protection of cells (Neutral red staining) (BE2C cells; retrovirally infected BE2C cells, vs control vector pLXSN (FIG. 4))	protection of cells (Neutral red staining) (BE2C cells; transiently transfected BE2C cells, vs control vector pLXSN (FIG. 5))	effect on cell survival, colony formation (P19 cells; 16 hours ischemia (0.5% O2 and no glucose))	effect on cell survival, colony formation (P19 cells; 16 hours ischemia (0.5% O2 and no glucose), listed as KIAA0538)	effect on cell survival, colony formation (P19 cells; 16 hours ischemia (0.5% O2 and no glucose), listed as full-length cDNA)	effect on cell survival, colony formation (P19 cells; normoxic conditions, listed as KIAA0538)	effect on cell survival, colony formation (P19 cells; normoxic conditions, listed as full-length cDNA)
B1	rescue of cells from apoptotic death	protects	increased cell survival	protection	protection	–	–	–	–	–
B2	–	–	–	–	–	very few colonies remaining	almost entirely non-viable	dramatically cytotoxic	detrimental	moderately cytotoxic
